In patent US20090098112A1 (Genentech, published 2009):

Columns and labels:
[1] = biological target: T1, recombinant human integrin α5β1 (R&D) (human, UniProt P08648 42-995; P05556 21-728); test: SPR (BIACORE-3000), antibody immobilized on CM5 chip (about 450 RU), human integrin α5β1 injected 300 nM to 0.29 nM, 25 °C, 1:1 Langmuir fit
T1 construct: Bought recombinant heterodimer (R&D); It was used coated on plates and in solution in the phage ELISA, and as analyte or immobilized in BIAcore; also called alpha5beta1; a5b1
Protocol: (§1) FIG. 3 depicts the results of a BIACORE® analysis of chimeric 7H5-IgG and humanized 7H5.v1-IgG against human integrin α5β1.
(§2) Affinity determinations were performed by surface-plasmon resonance using a BIACORE™-3000 instrument. Immobilization was achieved by random coupling through amino groups using a protocol provided by the manufacturer. Two different formats were operated to study binding kinetics for antibody against human integrin α5β1. In FIGS. 3A, 7, and 9A, antibodies were immobilized on a CM5 sensor chip around 450 response units (RU), and 2-fold serial diluted concentrations of human integrin α5β1 (300 nM to 0.29 nM) in PBT buffer (0.05% Tween 20 in PBS) were injected with a flow rate of 30 μl/min at 25° C. In FIGS. 3B and 9B, human integrin […] was immobilized on a CM5 sensor chip around 800 RU, and 2-fold serial diluted concentrations of antibodies (200 nM to 0.2 nM) in PBT buffer (0.05% Tween 20 in PBS) were injected with a flow rate of 30 μl/min at 25° C. After each injection, the chip was regenerated using 10 mM Glycine-HCl buffer at pH 1.7. Binding response was corrected by subtracting the RU from a blank flow cell. Association rates (kₒₙ) and dissociation rates (koff) were calculated using a simple one-to-one Langmuir binding model (BIAcore Evaluation Software version 3.2). The equilibrium dissociation constant (Kd) was calculated as the ratio koff/kₒₙ.

[2] = biological target: T1, recombinant human integrin α5β1 (R&D); test: as above; remark: listed apart in the source
Protocol: FIG. 7 depicts the results of a BIACORE® analysis of humanized 7H5.v1, v2 and v3-IgG against human integrin α5β1. […] Humanized 7H5.v2 indicates the most binding affinity improvement in off-rate.
as §2

[3] = biological target: T1, recombinant human integrin α5β1 (R&D); test: SPR (BIACORE-3000), human integrin α5β1 (R&D) immobilized on CM5 chip (about 800 RU), antibody injected 200 nM to 0.2 nM, 25 °C, 1:1 Langmuir fit
Protocol: as §1, §2

T1 sequence (P08648 42-995 limits assumed, chain 1 of 2): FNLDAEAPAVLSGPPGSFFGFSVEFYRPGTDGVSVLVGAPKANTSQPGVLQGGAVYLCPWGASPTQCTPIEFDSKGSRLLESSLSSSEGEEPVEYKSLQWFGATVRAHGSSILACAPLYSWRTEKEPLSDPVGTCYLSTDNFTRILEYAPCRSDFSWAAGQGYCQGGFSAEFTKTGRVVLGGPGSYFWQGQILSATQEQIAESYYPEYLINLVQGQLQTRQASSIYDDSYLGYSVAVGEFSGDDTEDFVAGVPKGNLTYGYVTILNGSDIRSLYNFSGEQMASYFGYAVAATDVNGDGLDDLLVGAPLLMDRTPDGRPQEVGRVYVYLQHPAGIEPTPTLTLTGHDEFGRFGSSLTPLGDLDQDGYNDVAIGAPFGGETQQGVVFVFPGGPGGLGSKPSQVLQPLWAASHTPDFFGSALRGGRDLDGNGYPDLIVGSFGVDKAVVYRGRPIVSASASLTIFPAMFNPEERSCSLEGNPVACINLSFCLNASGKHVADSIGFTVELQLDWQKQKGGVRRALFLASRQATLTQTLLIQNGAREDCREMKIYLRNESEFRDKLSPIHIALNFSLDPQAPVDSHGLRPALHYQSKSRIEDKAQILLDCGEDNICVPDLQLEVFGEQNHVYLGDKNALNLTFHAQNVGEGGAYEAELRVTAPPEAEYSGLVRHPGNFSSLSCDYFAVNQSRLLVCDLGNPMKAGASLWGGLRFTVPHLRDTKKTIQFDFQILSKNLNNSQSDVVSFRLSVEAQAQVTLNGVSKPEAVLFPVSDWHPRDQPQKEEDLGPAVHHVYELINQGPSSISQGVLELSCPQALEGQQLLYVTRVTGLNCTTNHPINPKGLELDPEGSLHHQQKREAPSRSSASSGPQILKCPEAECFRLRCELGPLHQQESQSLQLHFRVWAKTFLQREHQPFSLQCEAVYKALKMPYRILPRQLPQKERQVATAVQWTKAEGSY
T1 sequence (P05556 21-728 limits assumed, chain 2 of 2): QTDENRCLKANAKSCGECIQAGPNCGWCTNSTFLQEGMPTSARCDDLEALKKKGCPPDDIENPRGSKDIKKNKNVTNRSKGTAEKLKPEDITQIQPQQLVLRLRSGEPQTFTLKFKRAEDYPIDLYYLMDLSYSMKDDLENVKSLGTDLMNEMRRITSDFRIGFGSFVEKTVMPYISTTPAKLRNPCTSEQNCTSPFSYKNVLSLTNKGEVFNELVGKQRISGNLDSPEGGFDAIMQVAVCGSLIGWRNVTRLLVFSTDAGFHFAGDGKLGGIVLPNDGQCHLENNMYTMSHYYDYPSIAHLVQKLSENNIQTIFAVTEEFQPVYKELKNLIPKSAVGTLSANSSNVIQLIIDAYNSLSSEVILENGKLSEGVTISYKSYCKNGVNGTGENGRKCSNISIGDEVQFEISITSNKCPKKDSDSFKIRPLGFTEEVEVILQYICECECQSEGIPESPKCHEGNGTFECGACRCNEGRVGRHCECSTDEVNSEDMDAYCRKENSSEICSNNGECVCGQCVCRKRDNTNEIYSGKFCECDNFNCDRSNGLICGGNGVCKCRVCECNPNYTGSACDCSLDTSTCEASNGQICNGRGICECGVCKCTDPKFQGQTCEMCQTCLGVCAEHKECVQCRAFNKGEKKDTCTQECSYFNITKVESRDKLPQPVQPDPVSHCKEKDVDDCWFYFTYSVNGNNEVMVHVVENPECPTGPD

Kd [1]: 3.67 nM
koff [1]: 0.00018 s⁻¹
kon [1]: 49000 M⁻¹ s⁻¹
Kd [2]: 1.91 nM
koff [2]: 8.2e-05 s⁻¹
kon [2]: 43000 M⁻¹ s⁻¹
Kd [3]: 0.23 nM
koff [3]: 0.0002 s⁻¹
kon [3]: 870000 M⁻¹ s⁻¹
B1: h7H5.v1 (antibody, human IgG1, V domains shown)
VH: EVQLVESGGGLVQPGGSLRLSCAASGYTFTDYYLYWVRQAPGKGLEWIGGISPSNGGTTFNDNFENKATLSVDKSKNTAYLQMNSLRAEDTAVYYCTRDAYGDWYFDVWGQGT
VL: DIQMTQSPSSLSASVGDRVTITCKASQNVGSDVAWYQQKPGKAPKTLIYSTSYRYSGVPSRFSGSGSGTDFTLTISSLQPEDFATYYCQQYNSYPFTFGQGTKVEIKR
notes: CDR graft of murine 7H5, as human IgG1; also called humanized 7H5.v1-IgG
